Experimental findings from a protein production outcome set (Wang et al. 2014) are described below.
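Also: failed if final PepcDB status was selected cloned or expressed and not failed if soluble or beyond.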

A short description of the data set: label from the status in PepcDB records.
Consider “MMRAWIQLVIAIGVEIVGTSLLKLSSGFKYPLIGIVGMLLYGLAIFSFSRALSKIPLSVGYAIWAGVGTAATGLIGIWAFGEILTGLKTLGFMAIITGVILLNMPAKTTKSTTATPRSARWRTRFNR”, for which the protein production result is “failed”. Next, “MTDQRWLIDKSALVRLTDSPDMEIWSNRIERGLVHITGVTRLEVGFSAECGEIARREFREPPLSAMPVEYLTPRIEDRALEVQTLLADRGHHRGPSIPDLLIAATAELSGLTVLHVDKDFDAIAALTGQKTERLTHRPPSA”: “not failed”; “MSINLRSSGCSSPISATLERRLDSEVQTRANNVSFEQTKEKIRKMLEKVELSVSAYDTSWVAMVPSPSSQNAPLFPQCVKWLLDNQHEDGSWGLDNHDHQSLKKDVLSSTLASILALKKWGIGERQINKGLQFIELNSALVTDETIQKPTGFDIIFPGMIKYARDLNLTIPLGSEVVDDMIRKRDLDLKCDSEKFSKGREAYLAYVLEGTRNLKDWDLIVKYQRKNGSLFDSPATTAAAFTQFGNDGCLRYLCSLLQKFEAAVPSVYPFDQYARLSIIVTLESLGIDRDFKTEIKSILDETYRYWLRGDEEICLDLATCALAFRLLLAHGYDVSYDPLKPFAEESGFSDTLEGYVKNTFSVLELFKAAQSYPHESALKKQCCWTKQYLEMELSSWVKTSVRDKYLKKEVEDALAFPSYASLERSDHRRKILNGSAVENTRVTKTSYRLHNICTSDILKLAVDDFNFCQSIHREEMERLDRWIVENRLQELKFARQKLAYCYFSGAATLFSPELSDARISWAKGGVLTTVVDDFFDVGGSKEELENLIHLVEKWDLNGVPEYSSEHVEIIFSVLRDTILETGDKAFTYQGRNVTHHIVKIWLDLLKSMLREAEWSSDKSTPSLEDYMENAYISFALGPIVLPATYLIGPPLPEKTVDSHQYNQLYKLVSTMGRLLNDIQGFKRESAEGKLNAVSLHMKHERDNRSKEVIIESMKGLAERKREELHKLVLEEKGSVVPRECKEAFLKMSKVLNLFYRKDDGFTSNDLMSLVKSVIYEPVSLQEESLT”: “failed”. Next, “MTPIAQRDGQAIQLVGFDGDDTLWKSEDYYRTAEADFEAILSGYLDLGDSRMQQHLLAVERRNLKIFGYGAKGMTLSMIETAIELTEARIEARDIQRIVEIGRATLQHPVEVIAGVREAVAAIAADYAVVLITKGDLFHQEQKIEQSGLSDLFPRIEVVSEKDPQTYARVLSEFDLPAERFVMIGNSLRSDVEPVLAIGGWGIYTPYAVTWAHEQDHGVAADEPRLREVPDPSGWPAAVRALDAQAGRQQ”: “not failed”. Next, “WYENYRWFFTSEGFLVIGGRTAEMNEEIVAKHLESLDLFFHTQTPGAPAVILKRGQEAGEESIREAAEFAATYSALWKEGKHAGEVYYVLPEQVSKSAKAGEYLPK”: “failed”; “MIIIELNKRQEHIIQIVKDHGPITGESIAAQLGLTRATLRPDLAILTMAGYLEARPRVGYFYTGKTGGQLLSEAVKKIKVQDYQSRPVVIDKNVSVYDAICTMFLEDVGTLFVVDQSTLLVGVVSRKDLLRASLGKQDLTSLPVNIIMTRMPNIAMCRREDSLYDIAMELIERQIDAMPVVKDTKQGLEVVGRITKTNITRAFVNLVNNE”: “failed”; “MHESRLLLVMHWTEILAVFSFAVSGLAEARRRRLDAVGAFIVAFLTAFGGGTLRDLLLDRRPFYWVEHEQYLLALFVMSLFANRVIRLVSQLVSDRVLIVADAVGLGLFGVLGTQLALDAGVPVFVSVMMGVITAAFGGLLRDVVCNEIPMLLRDNRPYATCAFLGCWLYVGLTHTSLQPSVAVVVATLAIVAGRLATLRWNITLPR”: “failed”. With “MFPSRRKAAQLPWEDGRSGLLSGGLPRKCSVFHLFVACLSLGFFSLLWLQLSCSGDVARAVRGQGQETSGPPRACPPEPPPEHWEEDASWGPHRLAVLVPFRERFEELLVFVPHMRRFLSRKKIRHHIYVLNQVDHFRFNRAALINVGFLESSNSTDYIAMHDVDLLPLNEELDYGFPEAGPFHVASPELHPLYHYKTYVGGILLLSKQHYRLCNGMSNRFWGWGREDDEFYRRIKGAGLQLFRPSGITTGYKTFRHLHDPAWRKRDQKRIAAQKQEQFKVDREGGLNTVKYHVASRTALSVGGAPCTVLNIMLDCDKTATPWCTFS”, the protein production result is “failed”.

As for “MKNSEESSSSSEDTNNATDTNTSESQDISVNGPEKVGDVYEIDGGTAKVMAISNKETTVKTGPIQFTVKKVIAAVANEQLPFIDVQIESENTSDEVVRFRPSLAQLATSTGVQIDEPSLLESDRLLDEYVGKVNDSGSIIYVFDNEEDIKDLESIRLRISSPFNEDLKNLGDKLDLKINLEHLEHHHHHH”, the protein production entry is given as “not failed”. Next, “MPFPSLPSPLARALTERNYAEPTPVQQAVLDAVPERDLLVSAQTGSGKTVAFGLAIAGTLLGEDETLPPPGAPLALVIAPTRELALQVQRELTWLYAQTGARIVPCVGGMDPRREARALEAGVHIVVGTPGRLRDHMERGRLVTEGLRAVILDEADEMLDMGFREDLEFILASTPKDRRTLLFSATLPKAIVALAESYQRDALRLAVAGETRGHADIVYRAVRVMPREVEHAVVNILRYVDAPVAIVFCNTRDGVRHLQASLTERGFSAVALSGELGQGERNAALQALRDGRARVCVATDVAARGIDLPGLDLVIHADLPHDAEVMQHRSGRTGRAGRKGTSVVLVPPAKRRRAEQMFAIAKVSPDWSGPPNADEIRILDRERMMSDPLLAEPETEEDREWEREWAEALMERCPPERLAAAFARLYRSRIPVPEEVSDPAYETSRRPDSRSGVPVGASRVGDDEPAAWFRLNLGRRDRAEPRRLLPMLTRRGQIGRGDIGSIRIFDNETTFEVRASAADDFAASFARRGPADVRVERMQGDGPAAAKAPKSPRAQRHRREATKTGRGG”: “failed”; “MHCALLYSGGKDSTLAALLLDPFYDVTLVSGSFGVRDTDPAQESATAVGFDHVTVDLDPDVAHDAVKQMFDDGYPRNGIQRVHEHAVETVARADWVADADGLGTLDAVADGTRRDDRVPTVDRPLAQSIEDRFDVDYLAPLAGIGRGAIDAMAADRLVVESGPSAEIPKADYEVELRALLRKRYGEGAVADVFPEHTQSRVQGLR”: “failed”. Next, “MGQPVASKGRGATPTVGKAMLNKYARAFFTRVLTPFAAFLIRRGVSPDTVTLLGTAGVVAGALVFYPMGEFFWGTVVITLFVFSDLVDGNMARQLGRSSRWGAFLDSTLDRVADGAIFGGLALWYAGGGDDIVLCAVSIFCLASGQVVSYTKARGEAIGLPVAVNGLVERAERLVVSLVAAGFAGLHKFGVPGIQYLLPIALWIVAVGSLVTLVQRVVTVRREAAEADAAAQESQGTEAAK”: “failed”. Next, “MTAYIIVGLTPKDAEKLQQYGARVASTLAKYSGEVLVKGSVEQLHGKFEHKAQVILEFPSREDAYNWYHSEEYQALISTRDLGMDSQFQLIG”: “not failed”; “MANVFLISSRNRRSMRTTTESKPKNLTVKRSDSSSDYNYSCKKHPKHRQSPGICSLCLNESLSKLSSEFYDYSSSMSSSSLAKTMSSCSSASSESESDFSSTAISSYYSSVSSCLSPLQHRYSEIVVNKKKKKHVKKQSFLSRLFLKQRIQTKAVIGWHMTLQLAIQLMYGKRKKTCHASFIQVWY”: “failed”. In the case of “PGKEAQPAENVEFIYENGTWKLSQSWACTLIKNTVAPEQIPAMCADPAAPAPEGQPAPEQAPAPEAPAPEQAPAPEAPAPQ”, the protein production result is “failed”. Next, “MHNFSFDVDESYAKKNNEILRDAKRLQISALCLGLILGGGAVAVYLFSNGAVWMWMIAIVMVFLALLSFIMIPVIPRQMGNAQTLYDDYELAPAIIAEVNPRDVVLLALVNRNVNPEAKPEWALATRTIVRVGAHERRLGERIPSVAITGRRTVKDQDHWDEISPMPITWGTTDKDIIREAEKTIPHELWAKLEKNRGKLEDVKKTPNNLFKL”: “failed”; “MKAAEKYAKDVVAGKILVCKWIMLLAQRHLDDLAVSKRKDFPYKFDPAKAEKVAKFLQLLPHTKGKWGGKKQLIKLEPWQLFSVCVPFGWVRKKDGTRRYRTILVFVPRKNGKSIIGGGVGLYMFVADGEFGAEVYSGATTEKQAWEVFRPAKLMVERTDDLREHYGVDVNASNMVVLADGSRFEPVIGKPGDGSSPSCSVVDEYHEHQDSTLYDTMETGMGAREQPIMLVITTAGSSIGGPCHQLIRDSERMLEGVIDRPDLWPALYTIDQGDDWTSEIALRKANPNFGISVAEDFLLARQRDAMQSATKQATFRTKHLNEWVGAKNAWLNMLRWKEAPVRKSLAELEGRSCYGSLDLASKIDIAANLLIFPPHGDDPFWHIHARYYLPEARVLEELDSNTARYREFDALGLLTLTDGEVTDFEVIKEDMREFAGRFDIRAYAYDPWQATQLAQEMDAEGLPMVELRQTVQNLSEPMKEVEALVLQRKLAHGDCPVLTWMASNVVAKLDVKDNIYPNKERPENKIDGMVSLITGCAVAIKLGIDDSGHFDDFLASPIVVG”: “failed”; “EAPVRVIVVHGLGTHSGALWPLVAAIEGADLAAIDLPKTPLYDDWLRLLESFISSEDDGRPLILIGAGTGGLLCAEAAHRTGLVAHVIATCLLNPSDQPTRRALFRFSPLTRLIQGRLRNREIPVTRVLNFSKISRSPALSKLCAADEFSGASKITWGFLASYVQHKAKLGAVPVTLMHPDHDLLTPVELSLRTLSRLKAPTDVVMLKDCGHFPIEEPGFTTMLETVTSVIARNS”: “failed”. As for “MMTLIRITSADDSRLNRLIPLYEESFPESERRKIGQLKRMIENHAPMYFNAIECDGELSGMFVYWDMGDFYYLEHLAVFPEMRNKKIGQQVLDYVAEHLKGVRLLEVEPTEDEMTTRRVNYYRRNGYEVLDKTYVQPSYHALEDACPLWIMGSEDSPRLAEQVERIKEEVYRQQVG”, the protein production result is on record as “not failed”. Next, “MLAIRRGASMPPLNRSDDLMPGIDEIPERRDEVSLGDLLLEVLRFYQQFGRLLIPLAVLCGVLAGVVVATRPLYAVTALLETPQMSLEQWRKLQPMLADRQLVAASLASMTELPPEQRERLQRAFVLKKYWDTRVTYRSAVERDDIRQQVNIDAKSVGALGLEVSLYARDDAAANQQLDAIAQHVRQVVLWGGLRDYLDSLRQQTLEQRPQLQIDQIQQRYAIEQNERQAADMQQLLERYPELRRNEVNTVVSVGDGGGRYLSPLAQIVALQSTIAGTRTTLRQVERELEQLDGKQRFLARVDQRAPGLHLGRALADWVQSCRRAVFGSGTPSGSALSQVASEIDLALSQQRWRAQLVRYRAIPALSPAPVPSRRPALVALAVFLGVLLVASLGLAMYVIARRNGDRHASWSAHADPLFAWLPQRMRGLLLGPTDARPLGSG”: “failed”; “MKVFEFEVGKGFLLRLDYGKDLVRQIEEFLEEKGIHAAHISAIGAVRSAVIGYYDQEKKEYVKKELMEPLEILSLSGNVSMKDSKPFCHIHVLLGKDGEVYGGHLFSAEVFACEVFVLPLSGEAPERAFDEQTGLFLWLEHHHHHH”: “not failed”. Next, “HVLYSNILNRDVTISIYLPESYNQLVKYNVILCFDGLDFLRFGRIQRTYESLIKEARIDDAIIVGFHYEDVDKRREEFHPQGSRSHLTIQSVGKEILPFIDSTFSTLKVGNARLLVGDSLAGSIALLTALTYPTIFSRVAMLSPHSDDKVLDKLNQCANKEQLTIWHVIGLDEKDFTLPTNGKRADFLTPNRELAEQIKKYNITYYYDEFEGGHQWKDWKPLLSDILLYFLRKNTDDQHYE”: “failed”; “MARTRSADYENIRDTIIERAAAMFARQGYSETSIGDIARACECSKSRLYHYFDSKEAVLRDMLTTHVDSLLERCRQVLYGSNEPKTRFLQIVKLFLEIYATSRDRHVVMLTCLDALPEDQRKALIAKQRELIAYVRDALLQLRPDMAANRTLAHVDTMLFFGMINWTYTWYKADGSVSPDALAERTVQLFLDGYLNLLSA”: “not failed”. On to “MSSKNTAEVILGGKVIKLGGYESEEYLQRVASYINNKITEFNKEESYRRMSAELRTDMMYLNIADDYFKAKKMADSLSLDIENKDKEIYDLKHELIAAQIKAESSAKEIKELKSEINKYQKNIVKLETELNDSKK”, for which the protein production result is “not failed”.
